{"source": "patent US9931373B2", "about": "“Method of reducing cancer cell proliferation by administering recombinant alpha-fetoprotein” (priority 2005, dated 2018)", "molecules": {"B1": {"name": "rhAFP: recombinant human alpha-fetoprotein secreted by yeast Saccharomyces cerevisiae YBS723/pKX, glycosylated, mature human AFP sequence SEQ ID NO:2 (protein, listed as Homo sapiens)", "chain": "TLHRNEYGIASILDSYQCTAEISLADLATIFFAQFVQEATYKEVSKMVKDALTAIEKPTGDEQSSGCLENQLPAFLEELCHEKEILEKYGHSDCCSQSEEGRHNCFLAHKKPTPASIPLFQVPEPVTSCEAYEEDRETFMNKFIYEIARRHPFLYAPTILLWAARYDKIIPSCCKAENAVECFQTKAATVTKELRESSLLNQHACAVMKNFGTRTFQAITVTKLSQKFTKVNFTEIQKLVLDVAHVHEHCCRGDVLDCLQDGEKIMSYICSQQDTLSNKITECCKLTTLERGQCIIHAENDEKPEGLSPNLNRFLGDRDFNQFSSGEKNIFLASFVHEYSRRHPQLAVSVILRVAKGYQELLEKCFQTENPLECQDKGEEELQKYIQESQALAKRSCGLFQKLGEYYLQNAFLVAYTKKAPQLTSSELMAITRKMAATAATCCQLSEDKLLACGEGAADIIIGHLCIRHEMTPVNPGVGQCCTSSYANRRPCFSSLVVDETYVPPAFSDDKFIFHKDLCQAQGVALQTMKQEFLINLVKQKPQITEEQLEAVIADFSGLLEKCCQGQEQEVCFAEEGQKLISKTRAALGV", "modifications": "yeast glycosylation"}}, "key": {"[1]": {"system": "human hepatoma cells HepG2", "test": "Human hepatoma xenografts in Nude mice, rhAFP monotherapy", "assay_type": "in vivo, Balb C/Nude mice", "description": "To study tumor-suppression upon monotherapy with rhAFP we used in vivo model of human hepatoma xenografts in Nude mice. Balb C/Nude mice 8/group were implanted with 12×10^6 human hepatoma cells HepG2 s/c. rhAFP 10 mg/kg was injected i/p 9 times each 48 hrs during 16 days. Effectiveness of treatment was assessed by measuring and weighting of the tumor at the 30th day of experiment and by comparison of the quantity of mice with tumor during time of observation."}, "[2]": {"system": "human hepatoma cells HepG2", "test": "Treatment of HepG2 cells in vitro with rhAFP", "assay_type": "cell-based", "description": "Results: Without treatment, tumors were determined at 5th-7th day after transplantation."}, "resting mouse T-cells": {"system": "resting mouse T-cells", "test": "Control resting splenocytes / resting T-cells treated with rhAFP/CsA", "assay_type": "cell-based, mouse (CBA)", "description": "Control resting splenocytes CBA were treated for the same time with combination of rhAFP/CysA (FIG. 10C). Cytostatic effects were assessed by monitoring of cell proliferation by [^3H]-thymidine incorporation."}, "[3]": {"system": "embryonal fibroblasts of the lung and human retina", "test": "Growth of primary culture of human embryonal fibroblasts, [H3]-thymidine", "assay_type": "cell-based", "settings": "24 hours, FIG. 7", "description": "Proliferation of the cells was measured by a standard method of [H^3]-thymidine incorporation during the last four hours of culture and expressed in percent of the stimulation of growth in test cultures in respect of a control without AFP.\nThe primary culture of embryonal fibroblasts of the lung and human retina was obtained by treating with 0.25% trypsin solution corresponding tissues of 5-10 week embryos obtained after legal abortions. The cells were cultures in an RPMI-1640 medium in the presence of a 10% calf fetal serum (CFS). The cytostatic activity of AFP was measured as earlier described (Semenkova, L. 1997, Tumor Biol. 18, 261-274; Dudich E. I., et al., 1998, Tumor Biol. 198, 30-40). Cells in an amount of 4×10^4 in a 0.15 ml medium were intensively washed with a fresh to medium and placed in each cell of a 96-lune plate, then different doses of AFP were added and cultures 24 hours. Proliferation of the cells was measured by a standard method by the inclusion of [H^3]-thymidine during the last four hours of culturing."}, "[4]": {"system": "syngeneic leukemia cells P388", "test": "Syngeneic acute leukemia P388 in BDF1 mice, survival over 30 days", "assay_type": "in vivo", "settings": "rhAFP 25.0 mg/kg", "description": "We have studied the effect of combined treatment with AFP+Dox of acute leukemia in mice BDF1 with transplanted intrapleurally syngeneic P388 leukemia cells. BDF-1 mice (84 male, 28 mice per treatment) were implanted with lethal dose of 12×10^6 syngeneic leukemia cells P388 in the pleural region. Animals were subjected to monotherapy with Dox and combined therapy with rhAFP/Dox upon simultaneous single injection of drugs in various doses. Animal survival was compared over 30 days."}, "[5]": {"system": "PHA-activated CBA thymocytes", "test": "PHA-mediated thymocyte proliferation in vitro", "assay_type": "cell-based, mouse CBA", "settings": "AFP alone, 24 hrs after 48 hrs PHA 1.5 μg/ml"}, "[6]": {"system": "Human Umbilical Vein Endothelial Cells (HUVEC)", "test": "Wound healing assay with HUVEC", "assay_type": "cell-based", "settings": "serum-free medium, 50 μg/ml rhAFP, 18 hrs; HSA as control", "description": "HUVECs were plated onto the gelatin-coated 24-well plates, and grown for confluence. Than monolayers were wounded by scrapper, and cells were incubated in the serum-free medium with 0.1-0.5 mg/ml of rhAFP or HSA.\nTo test ability of rhAFP to stimulate regeneration of damaged tissue we established classical wound healing assay with normal Human Umbilical Vein Endothelial Cells (HUVEC) obtained after surgical resection of human vein tissue. HUVEC cells were cultivated in DMEM/F12 medium with addition 10% FBS and 0.1% ECGF on the 60 mm Petri dishes at 37° C. at 5% CO2 atmosphere. HUVECs were plated on gelatin-coated 24-well plates, and grown for confluence, than monolayers were wounded and cells were incubated in serum-free medium with 50 μg/ml rhAFP or 50 μg/ml HSA, healing was observed after 18 hrs incubation. Images of wound healing were taken after staining with crystal violet."}, "[7]": {"system": "cells of B-cellular lymphoma Raji", "test": "Suppression of growth of Raji cells in vitro, [H3]-thymidine incorporation", "assay_type": "cell-based, human", "settings": "12 hours with AFP, dose-dependent, FIG. 5", "description": "The functional activity of rAFP and the modified forms thereof were determined according to its capability of suppressing the growth of cells of B-cellular lymphoma Raji in the culture in vitro, as earlier described (Semenkova, L. 1997, Tumor Biol. 18, 261-274; Dudich E. I., et al., 1998, Tumor Biol. 198, 30-40). Preliminarily washed by a fresh medium, Raji cells were placed into each cell of a 96-alverolar plate according to 5×10^3 in 0.1 ml of a medium RPMI-1640 in the presence of a 10% fetal calf serum, then different doses of AFP were added for 12 hours. Proliferation of the cells was measured by a standard method by the introduction of [H^3]-thymidine during the last 4 hours of culturing. For comparison, the dose-dependent reactivity was studies for two samples of AFP of embryonal origin embrAFP and yeast rAFP (FIG. 5). […] Similarly, in order to determine the activity to preparations on the base of AFP in vitro, any other lines of cancer cells may be used that are sensitive to the suppressive action of AFP, such as human hepatocarcinoma HepG2, breast cancer MCF-7, prostate cancer LnCap, myeloblastoma U-937 and others (Semenkova, L. 1997, Tumor Biol. 18, 261-274; Dudich E. I., et al., 1998, Tumor Biol. 198, 30-40)."}}}
{"molecule": "B1", "values": [{"measurement": "tumor growth in the period of treatment", "setting": "[1]; rhAFP 10 mg/kg i/p 9 times each 48 hrs during 16 days", "value": "tumors did not grow in the period of treatment"}, {"measurement": "inhibition of total tumor weight relatively to untreated control", "setting": "[1]; rhAFP 10 mg/kg i/p 9 times each 48 hrs, tumor weighed at 30th day", "value": 90, "unit": "%"}, {"measurement": "effect on HepG2 cells in vitro", "setting": "[2]", "value": "dose-dependent growth suppression and apoptosis"}, {"measurement": "suppression of resting immune cells", "setting": "resting mouse T-cells; AFP as modulator of CsA-mediated signals", "value": "does not suppress resting immune cells"}, {"measurement": "effect of rhAFP on CsA treatment of resting mouse T-cells", "setting": "resting mouse T-cells; FIG. 10C", "value": "cancellation of the cytotoxic effects of CsA treatment"}, {"measurement": "stimulating effect on cellular growth in respect to the control", "setting": "[3]", "value": "50-90%"}, {"measurement": "Survival more 30 days", "setting": "[4]", "value": 0}, {"measurement": "T/C %", "setting": "[4]", "value": 118, "unit": "%"}, {"measurement": "T (survival, days)", "setting": "[4]; single injection", "value": "[15.7/21.8] 7.7 [6.4/ days"}, {"measurement": "proliferation of PHA-stimulated thymocytes in response to AFP", "setting": "[5]", "value": "distinct dose-dependent growth suppression"}, {"measurement": "migration of HUVEC to the wounded area", "setting": "[6]", "value": "significantly activated the migration of HUVEC to the wounded area"}, {"measurement": "cytostatic activity, inhibition of growth of Raji cells", "setting": "[7]", "value": "expressed cytostatic activity"}]}
